Consider one molecule from patent US20200031947A1.

Bounds are passed on as bounds.

The target in this assay is cynomolgus GITR (cyGITR), soluble analyte (cynomolgus). Nature of the assay: SPR (Biacore T200), 37 C; antibody captured on anti-human Fc chip, GITR as analyte; 1:1 Langmuir fit.

B1: h3G7 H1 (antibody, V domains shown)
VH: EVQLVESGGGLVQPGGSLRLSCAASGFTFSDYTMNWVRQAPGKGLEWVALINPYNGGIRYNQKFKGRFTISRDNAKNSLYLQMNSLRAEDTAVYYCARIGGYYDSMDYWGQGTLVTVSS
VL: DIQMTQSPSSLSASVGDRVTITCRASESVDNFGINFLNWYQQKPGKAPKLLIYAASNQGSGVPSRFSGSGSGTDFTLTISSLQPEDFATYYCQQSKELPWTFGGGTKVEIK
Take B1: the dissociation constant (Kd) is more than 100 nM, the koff worked out at 0.078 s⁻¹ and the t1/2 stood at 9 s.
